Test results from patent US20260083855A1 (Hoffmann-La Roche, published 2026).

T1: human LAG-3 on activated CD4 T cells (human, UniProt P18627 23-525)
T1 sequence (looked up): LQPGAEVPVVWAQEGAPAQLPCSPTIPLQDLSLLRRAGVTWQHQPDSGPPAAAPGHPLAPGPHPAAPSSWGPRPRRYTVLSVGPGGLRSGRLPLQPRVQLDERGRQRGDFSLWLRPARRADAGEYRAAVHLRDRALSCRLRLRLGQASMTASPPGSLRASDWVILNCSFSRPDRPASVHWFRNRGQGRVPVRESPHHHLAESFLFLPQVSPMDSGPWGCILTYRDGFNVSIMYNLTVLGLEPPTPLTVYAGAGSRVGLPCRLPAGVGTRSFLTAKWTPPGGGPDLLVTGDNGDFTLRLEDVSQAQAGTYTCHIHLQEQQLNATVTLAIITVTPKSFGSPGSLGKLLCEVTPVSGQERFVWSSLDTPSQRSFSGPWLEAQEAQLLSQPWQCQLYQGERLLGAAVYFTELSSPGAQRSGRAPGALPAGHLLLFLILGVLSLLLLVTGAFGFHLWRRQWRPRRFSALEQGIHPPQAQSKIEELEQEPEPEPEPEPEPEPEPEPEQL

T2: IL-2R on human cells (activated CD4 T cells, PBMC subsets, NK92) (human, UniProt P14784 27-551; P31785 23-369)
T2 sequence (looked up) 1: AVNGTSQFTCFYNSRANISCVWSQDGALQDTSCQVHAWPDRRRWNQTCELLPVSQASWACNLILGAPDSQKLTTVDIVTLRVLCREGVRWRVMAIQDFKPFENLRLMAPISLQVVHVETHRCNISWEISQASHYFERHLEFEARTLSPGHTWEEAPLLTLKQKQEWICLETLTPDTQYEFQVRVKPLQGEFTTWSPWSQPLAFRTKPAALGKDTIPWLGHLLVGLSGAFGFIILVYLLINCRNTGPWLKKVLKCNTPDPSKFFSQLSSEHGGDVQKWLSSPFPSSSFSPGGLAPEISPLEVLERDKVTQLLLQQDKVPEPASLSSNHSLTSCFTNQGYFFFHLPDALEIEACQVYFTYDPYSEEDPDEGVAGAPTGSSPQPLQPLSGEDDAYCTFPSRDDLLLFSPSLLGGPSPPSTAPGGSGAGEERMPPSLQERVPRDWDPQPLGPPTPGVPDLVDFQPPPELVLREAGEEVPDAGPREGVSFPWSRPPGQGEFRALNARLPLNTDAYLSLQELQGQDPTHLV
T2 sequence (looked up) 2: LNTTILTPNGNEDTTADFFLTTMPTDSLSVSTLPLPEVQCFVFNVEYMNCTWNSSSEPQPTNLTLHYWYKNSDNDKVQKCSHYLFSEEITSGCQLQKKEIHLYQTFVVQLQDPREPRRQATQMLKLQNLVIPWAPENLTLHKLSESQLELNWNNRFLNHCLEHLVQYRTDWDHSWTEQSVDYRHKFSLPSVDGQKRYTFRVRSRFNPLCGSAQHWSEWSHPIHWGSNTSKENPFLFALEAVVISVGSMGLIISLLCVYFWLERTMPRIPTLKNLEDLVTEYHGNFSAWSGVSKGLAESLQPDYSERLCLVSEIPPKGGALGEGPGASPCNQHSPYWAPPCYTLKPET


How the values were obtained:
Test in all cases: cell-based or functional assay
[1] = target: T3, human PD-1 on activated CD4 T cells (human, UniProt Q15116 25-288)
T3 sequence (Q15116 25-288 limits assumed): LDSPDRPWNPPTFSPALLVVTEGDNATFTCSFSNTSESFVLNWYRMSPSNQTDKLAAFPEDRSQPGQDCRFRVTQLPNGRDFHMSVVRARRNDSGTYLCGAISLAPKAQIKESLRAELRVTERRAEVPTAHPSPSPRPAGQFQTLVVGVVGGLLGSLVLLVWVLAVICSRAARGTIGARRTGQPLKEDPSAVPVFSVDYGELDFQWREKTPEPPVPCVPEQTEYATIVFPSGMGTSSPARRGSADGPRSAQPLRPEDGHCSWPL

[2] = target: T1, human LAG-3 on activated CD4 T cells
[3] = target: T2, IL-2R on human cells (activated CD4 T …)
[4] = target: T3, human PD-1 on activated CD4 T cells; remark: listed apart in the source
[5] = target: T1, human LAG-3 on activated CD4 T cells; remark: listed apart in the source
[6] = target: T2, IL-2R on human cells (activated CD4 T …); remark: listed apart in the source
[7] = target: T3, human PD-1 on activated CD4 T cells; remark: listed apart in the source

Binder | STAT5-P potency on PD-1+, LAG-3+ T cells against PD1-IL2v [1] [fold] | STAT5-P potency on PD-1+, LAG-3+ T cells against PD1-IL2v [2] [fold] | Potency reduction vs PD1-IL2v on PD-1+ LAG-3+ T cells [3] [fold] | Cis-delivery: fold increase in EC50, EC50 [PD1/LAG-3 bl.]/EC50 [PD1+/LAG-3+] [4] [fold] | Cis-delivery: fold increase in EC50, EC50 [PD1/LAG-3 bl.]/EC50 [PD1+/LAG-3+] [5] [fold] | Percentage of internalization (0.6 nM, activated CD4 T cells, 3 h at 37 C) [6] [%] | Percentage of internalization (0.6 nM, activated CD4 T cells, 3 h at 37 C) [7] [%]
PD1-LAG3-IL2v (P1AF4801) (bispecific antibody, human IgG1, kappa, L234A L235A) light 1: EVQLLESGGGLVQPGGSLRLSCAASGFSFSSYTMSWVRQAPGKGLEWVATISGGGRDIYYPDSVKGRFTISRDNSKNTLYLQMNSLRAEDTAVYYCVLLTGRVYFALDSWGQGTLVTVSSASVAAPSVFIFPPSDEQLKSGTASVVCLLNNFYPREAKVQWKVDNALQSGNSQESVTEQDSKDSTYSLSSTLTLSKADYEKHKVYACEVTHQGLSSPVTKSFNRGEC light 2: not shown heavy 1: EVQLLESGGGLVQPGGSLRLSCAASGFIFDDYTMNWVRQAPGKGLEWVAVISWDGGGTYYTDSVKGRFTISRDDFKNTLYLQMNSLRAEDTAVYYCAKGLTDTTLYGSDYWGQGTLVTVSSASTKGPSVFPLAPSSKSTSGGTAALGCLVEDYFPEPVTVSWNSGALTSGVHTFPAVLQSSGLYSLSSVVTVPSSSLGTQTYICNVNHKPSNTKVDEKVEPKSCDKTHTCPPCPAPEAAGGPSVFLFPPKPKDTLMISRTPEVTCVVVDVSHEDPEVKFNWYVDGVEVHNAKTKPREEQYNSTYRVVSVLTVLHQDWLNGKEYKCKVSNKALGAPIEKTISKAKGQPREPQVCTLPPSRDELTKNQVSLSCAVKGFYPSDIAVEWESNGQPENNYKTTPPVLDSDGSFFLVSKLTVDKSRWQQGNVFSCSVMHEALHNHYTQKSLSLSPGK heavy 2: not shown | 127 | 127 | 0.00787 | 1110 | 1110 | 25.7 | 
PD1-LAG3-IL2v Q126T (P1AF7951) (bispecific antibody, human IgG1, kappa, L234A L235A) light 1: EVQLLESGGGLVQPGGSLRLSCAASGFSFSSYTMSWVRQAPGKGLEWVATISGGGRDIYYPDSVKGRFTISRDNSKNTLYLQMNSLRAEDTAVYYCVLLTGRVYFALDSWGQGTLVTVSSASVAAPSVFIFPPSDEQLKSGTASVVCLLNNFYPREAKVQWKVDNALQSGNSQESVTEQDSKDSTYSLSSTLTLSKADYEKHKVYACEVTHQGLSSPVTKSFNRGEC light 2: not shown heavy 1: EVQLLESGGGLVQPGGSLRLSCAASGFIFDDYTMNWVRQAPGKGLEWVAVISWDGGGTYYTDSVKGRFTISRDDFKNTLYLQMNSLRAEDTAVYYCAKGLTDTTLYGSDYWGQGTLVTVSSASTKGPSVFPLAPSSKSTSGGTAALGCLVEDYFPEPVTVSWNSGALTSGVHTFPAVLQSSGLYSLSSVVTVPSSSLGTQTYICNVNHKPSNTKVDEKVEPKSCDKTHTCPPCPAPEAAGGPSVFLFPPKPKDTLMISRTPEVTCVVVDVSHEDPEVKFNWYVDGVEVHNAKTKPREEQYNSTYRVVSVLTVLHQDWLNGKEYKCKVSNKALGAPIEKTISKAKGQPREPQVCTLPPSRDELTKNQVSLSCAVKGFYPSDIAVEWESNGQPENNYKTTPPVLDSDGSFFLVSKLTVDKSRWQQGNVFSCSVMHEALHNHYTQKSLSLSPGK heavy 2: not shown | 6.5 | 6.5 | 0.154 | 485 | 485 | 28.1 | 
anti-PD1 IgG PG LALA (P1AA6888) (antibody, V domains shown) VH: EVQLLESGGGLVQPGGSLRLSCAASGFSFSSYTMSWVRQAPGKGLEWVATISGGGRDIYYPDSVKGRFTISRDNSKNTLYLQMNSLRAEDTAVYYCVLLTGRVYFALDSWGQGTLVTVSS VL: DIVMTQSPDSLAVSLGERATINCKASESVDTSDNSFIHWYQQKPGQSPKLLIYRSSTLESGVPDRFSGSGSGTDFTLTISSLQAEDVAVYYCQQNYDVPWTFGQGTKVEIKR |  |  |  |  |  |  | 13.6
